# Measured values published in JP2001333780A (dated 2001).
# Molecular target: T1, 上皮細胞増殖因子レセプター(EGFR) (UniProt P00533 25-1210, limits assumed)
# T1 construct: whole, on cells; The antigen is formalin-fixed A431 cells; also called EGF レセプター; EGFレセプター
# Test: competition ELISA with HRP-labelled B4G7 on formalin-fixed A431 cells
抗体一価あたりの結合力 (relative to B4G7抗体),binding result,Binder
"~0.33 fold of B4G7 antibody, per antibody valence",,一本鎖scBH抗体 (scFv) QVQLQQSGAELVRPGASVKLSCTASGFNIKDTLMHWVKQRPEQGLEWIGWIDPEDGNTKYVRKFQGKATITADTSSNTAYLQVSSLTSEDTAIYYCVRGGSYGNWAYWGQGTTVTVSSDIELTQSPASLSASVGETVTITCRTSENIYSYFAWYQQKQGKSPHLLVYNAKTLAEGVPSRFSGSGSGTQFSLKINSLQPEDFGIYFCQHHYGSLHTFGGGTKLEIK
,binds,"CaC 型 ヒト型一本鎖抗体 (scFv, Humanised scFv with VH of Ca type and VL of C type) scFv: MGHHHHHHQVQLVQSGAEVKKPGASVKVSCKASGFNIKDTLMHWVRQAPGQGLEWMGWIDPEDGNTKYVRKFQGRVTMTRDTSTSTVYMELSSLRSEDTAVYYCARGGSYGNWAYWGQGTTVTVSSGGGGSGGGGSGGGGSDIQMTQSPSSLSASVGDRVTITCRTSENIYSYFAWYQQKSGKAPKLLIYNAKTLAEGVPSRFSGSGSGTEFTLTISSLQPEDFATYFCQHHYGSLHTFGGGTTVDIKHHHHHHGGGS"
